B1: KB_A07_HsTx1 (antibody, V domains shown)
VH: EVQLVESGGGLVRPGGSLRLSCAASGFTFSSYAMSWVRQAPGKGLEWVSAISGSGGSTYYADSVKGRFTISRDNTKNSLYLQMTSLRADDTAFYYCVKDFGPGYGTGWFDYWGPGTLVTVSS
VL: DIQMTQSPSSLSASVGDRVTITCRASQSISSYLNWYQQKPGKAPKLLIYAAGVASCRTPKDCADPCRKETGCPYGKCMNRKCKCNRCSRSGVPSRFSGSGSGTDFTLTISSLQPEDFATYYCQQGASPPYTFGQGTKVEIKR
B2: KB_A12_ADWX1: ADWX-1 in VL CDR2 of KB_A12, IgG (antibody, V domains shown)
VH: EVQLVESGGGLVRPGGSLRLSCAASGFTFSSYAMSWVRQAPGKGLEWVSAISGSGGSTYYADSVKGRFTISRDNTKNSLYLQMTSLRADDTAFYYCVKDFGPGYGTGWFDYWGPGTLVTVSS
VL: QSVLTQPPSVSEAPRQRVTITCSGSSSNIGNNAVNWYQQLPGKAPKLLIYAAGRVGINVKCKHSRQCLKPCKDAGMRFGKCTNGKCHCTPKANSGVSDRFSAAKSGTSASLAINGLRSEDEADYYCAAWDDSLNGYVFGTGTKLTVLG
B3: F07: KnotBody with alternative 5-3 framing of EETI-II, VL CDR2 (protein)
chain: QSVLTQPPSVSEAPRQRVTITCSGSSSNIGNNAVNWYQQLPGKAPKLLIYAAGGCGPNGFCGSGSDGGVCPRILMRCKQDSDCLAGCGGQSGVPDRFSGSKSGTSASLAISRLQSEDEADYYCAAWDDSLNAYVFGTGTKVTVLGQP
modifications: F07 (72824)
notes: KnotBody with alternative 5-3 framing of EETI-II, VL CDR2
B4: E08: KnotBody with alternative 5-3 framing of EETI-II, VL CDR2 (protein)
chain: QSVLTQPPSVSEAPRQRVTITCSGSSSNIGNNAVNWYQQLPGKAPKLLIYAAGGCGPNGFCGSGSDGGVCPRILMRCKQDSDCLAGCGIQSGIPERFSGSKSGTSASLAISGLRSEDEADYYCAAWDDNLSGYVFGTGTKLTVLGQP
modifications: E08 (121047)
notes: as for B3
B5: E05: KnotBody with alternative 5-3 framing of EETI-II, VL CDR2 (protein)
chain: QSVLTQPPSVSEAPRQRVTITCSGSSSNIGNNAVNWYQQLPGKAPKLLIYAAGGCGPNGFCGSGSDGGVCPRILMRCKQDSDCLAGCGAQSGIPERFSGSKSGTSASLAISGLQSEDEAHYYCAAWDDSLNGYVFGTGTKVTVLGQP
modifications: E05 (118631)
notes: as for B3
B6: E09: KnotBody with alternative 5-3 framing of EETI-II, VL CDR2 (protein)
chain: QSVLTQPPSVSEAPRQRVTITCSGSSSNIGNNAVNWYQQLPGKAPKLLIYAAGGCGPNGFCGSGSDGGVCPRILMRCKQDSDCLAGCGTQSGIPERFSGSKSGTSASLAISGLRSEDEADYYCAAWDDSLRAYVFGTGTQLTVLGQP
modifications: E09 (70274)
notes: as for B3
B7: E01: KnotBody with alternative 5-3 framing of EETI-II, VL CDR2 (protein)
chain: QSVLTQPPSVSEAPRQRVTITCSGSSSNIGNNAVNWYQQLPGKAPKLLIYAAGGCGPNGFCGSGSDGGVCPRILMRCKQDSDCLAGCGIHSGVSDRFSDSKSGTSASLAISGLQSEDEADYYCAAWDDSLNGYVFGTGTKLTVLGQP
modifications: E01 (127988)
notes: as for B3
B8: E03: KnotBody with alternative 5-3 framing of EETI-II, VL CDR2 (protein)
chain: QSVLTQPPSVSEAPRQRVTITCSGSSSNIGNNAVNWYQQLPGKAPKLLIYAAGGCGPNGFCGSGSDGGVCPRILMRCKQDSDCLAGCGRNSGIPERFSGSKSGHTATLTISRVEAGDEADYYCQVWDSSSDHVLFGGGTKLTVLGQP
modifications: E03 (82495)
notes: as for B3
B9: F03: KnotBody with alternative 5-3 framing of EETI-II, VL CDR2 (protein)
chain: QSVLTQPPSVSEAPRQRVTITCSGSSSNIGNNAVNWYQQLPGRAPKLLIYAAGGCGPNGFCGSGGDGGVCPRILMRCKQDSDCLAGCGAHSGIPERFSGSKSGTSASLAISGLRSEDEADYYCAAWDDSLNGWVFGGGTKVTVLGQP
modifications: F03 (67972)
notes: as for B3
B10: C09: KnotBody with alternative 5-3 framing of EETI-II, VL CDR1 (protein)
chain: QSVLTQPPSVSEAPRQRVTITCGGKRCGPNGFCGSGSDGGVCPRILMRCKQDSDCLAGCTSNWYQQKPGQAPVLVVQDDSVRPSGIPERFSGSNSGNTATLTISRVEAGDGADYYCQVWDISSDLGVFGGGTKLTVLGQP
modifications: C09 (9820)
notes: KnotBody with alternative 5-3 framing of EETI-II, VL CDR1

Biological target: T1, human Kv1.3 (huKv1.3) (Homo sapiens, UniProt P22001)
T1 construct: host or cells: CHO
T1 sequence (P22001 whole entry): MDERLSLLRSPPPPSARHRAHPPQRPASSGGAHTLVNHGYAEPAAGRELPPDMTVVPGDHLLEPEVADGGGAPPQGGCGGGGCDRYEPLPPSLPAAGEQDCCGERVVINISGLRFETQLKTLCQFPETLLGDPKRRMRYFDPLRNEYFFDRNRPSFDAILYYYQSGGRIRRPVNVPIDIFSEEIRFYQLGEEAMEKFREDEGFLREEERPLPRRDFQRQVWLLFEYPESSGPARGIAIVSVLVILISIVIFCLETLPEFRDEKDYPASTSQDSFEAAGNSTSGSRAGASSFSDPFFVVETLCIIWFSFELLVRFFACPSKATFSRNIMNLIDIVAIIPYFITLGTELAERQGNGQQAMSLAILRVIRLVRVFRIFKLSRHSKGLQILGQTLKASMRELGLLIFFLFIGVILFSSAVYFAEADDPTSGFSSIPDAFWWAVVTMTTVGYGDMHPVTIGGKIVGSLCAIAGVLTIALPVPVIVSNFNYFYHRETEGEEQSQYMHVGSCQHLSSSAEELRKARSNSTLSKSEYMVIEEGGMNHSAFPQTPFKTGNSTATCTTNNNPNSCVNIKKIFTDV
Test: QPatch automated patch-clamp, CHO cells stably expressing human Kv1.3 (Examples 19-21)
Format: cell-based
Conditions: huKv1.3, four-point curves of FIG. 32, Table E19; read-out: IC50
Procedure: The effect of these KnotBodies on cells expressing human Kv1.3 (huKv1.3) channel was assessed using the QPatch automated patch-clamp platform (Sophion, Ballerup, Denmark). For the testing of Kv1.3 ion channel currents, CHO cells stably expressing human Kv1.3 (GenBank accession number NM_002232.2; cell line catalogue number CT6133, Charles River Discovery, Cleveland, USA) were subjected to a QPatch electrophysiology assay in the presence or absence of the KnotBody fusions or the antibody isotypes (negative controls). Internal and external physiological solutions were freshly prepared prior to the assay. The extracellular solution contained 145 mM NaCl, 4 mM KC1, 2 mM CaC12, 1 mM MgC12, 10 mM HEPES and 10 mM glucose; the pH was adjusted to 7.4 with NaOH; the osmolarity was ~ 305 mOsm/L. The intracellular solution contained: KF (120 mM), KC1 (20 mM), HEPES (10 mM) EGTA (10 mM); the pH was adjusted to 7.2 with KOH; osmolarity was ~ 300 mOsm/L.
(§1) A series of depolarising voltage (channel activating) pulses were used to monitor the channel currents upon adding control (extracellular solution) to define a control baseline of current activity. To these measured control currents four, ascending concentrations of KnotBodies (including KB_A12_ShK and KB_A12_KTX as previously described in Example 8) or parental antibody isotypes (control molecules) were applied to the external bathing solution. KnotBodies KB_A12 and KB_A07 (EETI-II fusions) were used as isotype controls for the testing. From a holding voltage of -80 mV a depolarising, activating voltage pulses of +30 mV were applied for 300 ms, every 10 seconds. The elicited, maximum outward current values measured during the activating step for each solution exchange period, averaged (n = 3 - 6 for each concentration applied) and plotted as concentration-response curves (see FIG. 32). From these concentration-response curves IC50 values were calculated.
For the testing of Kv1.1 and Kv1.3, CHO-S expressing huKv1.1 (described above) or CHO cells stably expressing huKv1.3 (Charles River Lab) were analysed using the QPatch electrophysiology assay in the presence or absence of the KnotBody fusions. Internal and external physiological solutions were freshly prepared prior to the assay. The extracellular solution contained 145 mM NaCl, 4 mM KC1, 2 mM CaC12, 1 mM MgC12, 10 mM HEPES and 10 mM glucose; the pH was adjusted to 7.4 with NaOH; the osmolarity was ~ 305 mOsm/L. The intracellular solution contained: KF (120 mM), KC1 (20 mM), HEPES (10 mM) EGTA (10 mM); the pH was adjusted to 7.2 with KOH; osmolarity was ~ 300 mOsm/L.
as §1, with “(including previously described” for “(including”, “KB_A12_KTX” for “KB_A12_KTX as previously”, “[…]” for “+30 mV”, “33).” for “32).”, “calculated (see Table E20).” for “calculated.”
For the testing of Kv1.1 and Kv1.3, CHO-S expressing huKv1.1 (see Example 20 and below) or CHO cells stably expressing huKv1.3 (Charles River Lab) were analysed using the QPatch electrophysiology assay in the presence or absence of the KnotBody fusions - see details in Examples 19 and 20.

**Q.** Which IC50 does the source give for B1 here?
**A.** The IC50 was 4.7 nM.

**Q.** With B2 as the molecule, how does the IC50 read?
**A.** Its IC50 is 270 nM.

System: trypsin
Test: Phage TRF binding assay on immobilised biotinylated trypsin (monoclonal phage ELISA)
Conditions: EETI-II in 5-3 frame, value in brackets after clone name
Procedure: Phage display technology facilitates isolation of binders to any given target from large combinatorial repertoires based on proteins and peptides that can be presented on the surface of filamentous phage^105. In order to isolate functional knottin-antibody fusions from the KnotBody libraries multiple rounds of phage display selections on trypsin (cognate antigen for the EETI-II donor) were carried out. Phage particles were prepared by rescuing KnotBody libraries using trypsin cleavable helper phage ^102,106Two rounds of phage display selections were performed on 10 µg/ml biotinylated trypsin immobilised on Streptavidin (for Round-1) or Neutravidin (for round-2) coated Maxisorp™ immunotubes (Thermo Scientific, Cat No. 444202). In both rounds of selection, phage libraries were pre-incubated with streptavidin coated paramagnetic beads (Thermo Fisher Scientific, Cat. No. 11205D). These beads were removed prior to the addition the phage to the antigen tubes to limit the streptavidin binders entering the selection. Polyclonal phage preparations from round-2 selection outputs were analysed for trypsin binding using a time resolved fluorescence (TRF) binding assay. In this assay, polyclonal phage binding to biotinylated trypsin immobilised on neutravidin (Thermo Fisher Scientific, Cat. No 31000) coated Maxisorp™ plates (Thermo Scientific, Cat. No. 437111) was detected using a mouse anti-M13 antibody (GE Healthcare, Cat. No. 27-9420-01) followed by europium conjugated anti-mouse antibody (Perkin Elmer, Cat. No. AD0124).
In order to identify monoclonal KnotBodies with desired binding characteristics, 94 individual clones derived from 2 rounds of selection using EETI-II CDR1 or CDR2 libraries were picked into 96 well culture plates and phage were prepared from each clone. Methods for screening by monoclonal phage ELISA are known in the art^107. […] Clones with >3x binding signal above background were picked as positive clones and sequenced to identify unique clones. 14 and 42 unique binders were identified from EETI-II CDR1 and EETI-II CDR2 libraries respectively (Table 1). 18 binders from the EETI-II CDR2 library and 3 binders from the EETI-II-CDR1 library were chosen for further characterisation based on their VL and linker sequence diversity. These binders were assigned new clone identification numbers (Table 2).
The trypsin binding capability of EETI-II is attributed to proline (Pro3) and arginine (Arg4) residues present in its loop1 (GCPRILMRC; SEQ ID NO: 68). […] Monoclonal phage was prepared from the 21 selected clones and their mutant equivalents. […] Replacement of the trypsin-binding residues of EETI-II abolished the ability of all KnotBody clones to bind to trypsin (Table 3). In order to confirm that the loss of trypsin binding was not due to reduced expression or display of pIII fusion phage was prepared from 11 (randomly chosen) KnotBodies and their GlyAla variants were analysed on a western blot using an antibody which recognises the product of gene 3 (pIII) using an anti-pIII antibody (MoBiTec GmbH) (FIG. 6).
Bovine antibodies have been described with natural ultra-long VH CDR3s containing a solvent exposed double stranded antiparallel sheet approximately 20 A° in length (referred to as the stalk) presenting a folded domain stabilised by 3 disulfide bonds (referred to as the Knob)^10. Zhang and colleagues have shown that the Knob domains of these cow ultra-long VH CDR3 antibodies (ULVC-Ab) can be replaced with other folded proteins such as erythropoietin^13. In this example, we assess the ability of a cow ULVC-Ab to present functional knottin fusions on phage in comparison with a KnotBody. In order to create a Knottin-cow UCLA fusion, the sequence between the first and the last cysteines of the knob region of the Cow ULVC-Ab BLV1H12 was replaced with the sequence of the trypsin binding knottin; EETI-II (EETI-II cow ULVC-Ab). A gene fragment encoding this construct was synthesised (Integrated DNA technologies, Table 21). […]

**Q.** Which “ELISA signal from monoclonal phage ELISA” value does the source give for B3 here?
**A.** The value was “F07 (72824)”.

**Q.** Which “ELISA signal from monoclonal phage ELISA” value does the source give for B4 here?
**A.** Its value is “E08 (121047)”.

**Q.** With B5 as the molecule, how does the “ELISA signal from monoclonal phage ELISA” value read?
**A.** The value was “E05 (118631)”.

**Q.** B6 was tested. Which “ELISA signal from monoclonal phage ELISA” value did it give?
**A.** The value was “E09 (70274)”.

**Q.** B7 was tested. Which “ELISA signal from monoclonal phage ELISA” value did it give?
**A.** The value was “E01 (127988)”.

**Q.** With B8 as the molecule, how does the “ELISA signal from monoclonal phage ELISA” value read?
**A.** The value was “E03 (82495)”.

**Q.** How did the “ELISA signal from monoclonal phage ELISA” value turn out when B9 was run?
**A.** The value was “F03 (67972)”.

**Q.** B10 was tested. Which “ELISA signal from monoclonal phage ELISA” value did it give?
**A.** The value was “C09 (9820)”.
